# In paper PMC6566870, “Influence of Chemokine N-Terminal Modification on Biased Agonism at the Chemokine Receptor CCR1” (International Journal of Molecular Sciences, 2019):
# T1: N-terminally His6-tagged cMyc-tagged human CCR1 (human, UniProt P32246 1-355)
# T1 sequence (looked up): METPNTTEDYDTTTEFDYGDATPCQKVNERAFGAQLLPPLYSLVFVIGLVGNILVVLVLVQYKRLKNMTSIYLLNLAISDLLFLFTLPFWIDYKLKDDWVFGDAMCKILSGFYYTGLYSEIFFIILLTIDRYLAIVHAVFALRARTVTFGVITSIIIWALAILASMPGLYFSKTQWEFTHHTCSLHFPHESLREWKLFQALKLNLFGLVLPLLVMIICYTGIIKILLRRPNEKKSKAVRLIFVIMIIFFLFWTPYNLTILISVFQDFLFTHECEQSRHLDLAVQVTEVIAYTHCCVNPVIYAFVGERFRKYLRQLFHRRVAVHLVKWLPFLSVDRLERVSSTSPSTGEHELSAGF
# Assays:
# [1] = target: T1, N-terminally His6-tagged cMyc-tagged …; experiment: cell-based or functional assay
# [2] = target: T1, N-terminally His6-tagged cMyc-tagged …; experiment: radioligand binding; competitive displacement of 50 pM 125I-CCL3 from membranes of Flp-In T-REx 293 cells expressing CCR1; 2 h at 37 °C; two sets of experiments (Table 1, Table 3); details: one partner purified
# [3] = target: T1, N-terminally His6-tagged cMyc-tagged …; experiment: cell-based or functional assay; remark: listed apart in the source
# [4] = target: T1, N-terminally His6-tagged cMyc-tagged …; experiment: radioligand binding; competitive displacement of 50 pM 125I-CCL3 from membranes of Flp-In T-REx 293 cells expressing CCR1; 2 h at 37 °C; two sets of experiments (Table 1, Table 3); details: one partner purified; remark: listed apart in the source
Binder,"ERK1/2 phosphorylation, EC50 [1] [nM]","ERK1/2 phosphorylation, pEC50 [1]","G protein activation (Gαi1, BRET), EC50 [1] [nM]","G protein activation (Gαi1, BRET), pEC50 [1]","inhibition of forskolin-induced cAMP production, EC50 [1] [nM]","inhibition of forskolin-induced cAMP production, pEC50 [1]",IC50 [2] [nM],pIC50 [2],"Gαi2 activation (BRET), EC50 [3] [nM]","Gαi2 activation (BRET), pEC50 [3]",IC50 [4] [nM],pIC50 [4]
"CCL8 (Lys-46 allele, Pro-8→Ala) (ligand, human, UniProt P80075 24-99, looked up, CCL8 (MCP-2), human, Lys-46 allele, with Pro-8→Ala to make the protein monomeric; N-terminal region of ten residues before the CC motif; also called MCP-2; not shown: His6, N-terminal, cleaved) QPDSVSIAITCCFNVINRKIPIQRLESYTRITNIQCPKEAVIFKTKRGKEVCADPKERWVRDSMKHLDQIFQNLKP",65.5,7.2 -log M,30,7.5 -log M,48,7.3 -log M,2.3,8.6 -log M,–,–,–,–
"CCL7 (ligand, CCL7 (MCP-3), human, wild type; N-terminal region of ten residues before the CC motif; also called monocyte chemoattractant protein-3; MCP-3; not shown: His6, N-terminal, cleaved) not shown",9.6,8 -log M,14,7.9 -log M,9.5,8 -log M,0.33,9.5 -log M,26.4,7.6 -log M,1.2,8.9 -log M
